According to patent US6825164 (TRUSTEES OF COLUMBIA UNIVERSITY IN THE CITY OF NEW YORK, dated 2004):
Ends that are not written are not given here.

B2: Mouse receptor for advanced glycation endproduct (RAGE) at the blood-brain barrier (receptor)
chain: GQNITARIGEPLVLSCKGAPKKPPQQLEWKLNTGRTEAWKVLSPQGGPWDSVAQILPNGSLLLPATGIVDEGTFRCRATNRRGKEVKSNYRVRVYQIPGKPEIVDPASELTASVPNKVGTCVSEGSYPAGTLSWHLDGKLLIPDGKETLVKEETRRHPETGLFTLRSELTVIPTQGGTTHPTFSCSFSLGLPRRRPLNTAPIQLRVREPGPPEGIQLLVEPEGGIVAPGGTVTLTCAISAQPPPQVHWIKDGAPLPLAPSPVLLLPEVGHADEGTYSCVATHPSHGPQESPPVSIRVTETGDEGPAEGSVGESGLGTLALALGILGGLGVVALLVGAILWRKRQPRREERKAPESQEDEEERAELNQSEEAEMPENGAGGP
notes: Endogenous RAGE on brain microvessels/endothelium of living mice (brain perfusion model); The mice in the experiments were of other strains; also called receptor for advanced glycosylation end products

Key:
[1] = biological target: B2; experiment: in vivo brain perfusion with 125I-Aβ, capillary-depletion, binding to brain microvessels
Protocol: (§1) Injection of radioisotopes for transport studies. […] When the effects of different unlabeled molecular reagents were tested, those were injected 5 min prior to tracers injection and than simultaneously with radiolabled ligands. At predetermined times within 10 min mice were sacrificed by decapitation, and brain tissue prepared for radioactivity analysis. TCA and HPLC analysis as we described were used to determine molecular forms of uptake of radiolabeled Aβ by the BBB. Capillary-depletion technique was used to separate micravascular pellet from capillary-depleted brain to quantify in vivo binding to microvessels vs. transport into brain parenchyma, as we reported.

[2] = biological target: T1, Aβ1-40 human form (synthetic amyloid-beta peptide 1-40) (human, UniProt P05067 672-711, radioiodinated with Na[125I] for the transport and binding studies); experiment: as above
T1 construct: domain: Aβ1-40; Stock solutions in DMSO to keep it monomeric; Aβ numbering 1-40 counts on the Aβ peptide, not on APP; also called human Aβ1-40; Amyloid β1-40 peptide
Protocol: as §1

B1: Aβ1-40 murine form (synthetic amyloid-beta peptide 1-40) (peptide, UniProt P12023 672-711, looked up)
peptide: DAEFGHDSGFEVRHQKLVFFAEDVGSNKGAIIGLMVGGVV
modifications: also: radioiodinated with Na[125I], position not given here
notes: domain: Aβ1-40; also called mouse Aβ1-40; murine Aβ1-40
binding result [1]: binds

B2
binding result [2]: binds
